Assay results reported in paper PMC3417354 (Analytical biochemistry, 2012).

Biological target: human proliferating cell nuclear antigen (PCNA), no tag (human, UniProt P12004 1-261)
Assay: fluorescence polarisation

human proliferating cell nuclear antigen (PCNA), no tag, sequence (P12004 whole entry): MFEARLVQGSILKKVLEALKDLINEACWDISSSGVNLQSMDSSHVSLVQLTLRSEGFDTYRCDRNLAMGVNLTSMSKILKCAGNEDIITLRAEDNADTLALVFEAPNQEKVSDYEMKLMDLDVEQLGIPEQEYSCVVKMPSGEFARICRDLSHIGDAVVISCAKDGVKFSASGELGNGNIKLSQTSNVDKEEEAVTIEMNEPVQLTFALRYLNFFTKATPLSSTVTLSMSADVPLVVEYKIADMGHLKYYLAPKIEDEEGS

IC50	Kd	Binder
1000 nM	30 ± 2 nM	divalent p21 peptide (peptide) KRRQTSMTDFYHSKRRLIFSGGSGGSGGSGGSGGSGGSKRRQTSMTDFYHSKRRLIFS
600 nM	2.2 ± 0.2 nM	trivalent p21 peptide (peptide) KRRQTSMTDFYHSKRRLIFSGGSGGSGGSGGSGGSGGSKRRQTSMTDFYHSKRRLIFSGGSGGSGGSGGSGGSGGSKRRQTSMTDFYHSKRRLIFS
